Reference: paper PMC10978961, “Architecture and activation of human muscle phosphorylase kinase” (Nature Communications, 2024)

Target: the molecule itself
Assay: cryo-EM structure; inactive PhK holoenzyme, dephosphorylated, with 4 mM EGTA and excess calmodulin; 25 mM HEPES pH 6.8, 150 mM NaCl, 2 mM DTT; subunits co-expressed and purified as a complex

B1: human muscle phosphorylase kinase (PhK) β-subunit (natural protein, UniProt Q93100 1-1093, looked up)
chain: MAGAAGLTAEVSWKVLERRARTKRSGSVYEPLKSINLPRPDNETLWDKLDHYYRIVKSTLLLYQSPTTGLFPTKTCGGDQKAKIQDSLYCAAGAWALALAYRRIDDDKGRTHELEHSAIKCMRGILYCYMRQADKVQQFKQDPRPTTCLHSVFNVHTGDELLSYEEYGHLQINAVSLYLLYLVEMISSGLQIIYNTDEVSFIQNLVFCVERVYRVPDFGVWERGSKYNNGSTELHSSSVGLAKAALEAINGFNLFGNQGCSWSVIFVDLDAHNRNRQTLCSLLPRESRSHNTDAALLPCISYPAFALDDEVLFSQTLDKVVRKLKGKYGFKRFLRDGYRTSLEDPNRCYYKPAEIKLFDGIECEFPIFFLYMMIDGVFRGNPKQVQEYQDLLTPVLHHTTEGYPVVPKYYYVPADFVEYEKNNPGSQKRFPSNCGRDGKLFLWGQALYIIAKLLADELISPKDIDPVQRYVPLKDQRNVSMRFSNQGPLENDLVVHVALIAESQRLQVFLNTYGIQTQTPQQVEPIQIWPQQELVKAYLQLGINEKLGLSGRPDRPIGCLGTSKIYRILGKTVVCYPIIFDLSDFYMSQDVFLLIDDIKNALQFIKQYWKMHGRPLFLVLIREDNIRGSRFNPILDMLAALKKGIIGGVKVHVDRLQTLISGAVVEQLDFLRISDTEELPEFKSFEELEPPKHSKVKRQSSTPSAPELGQQPDVNISEWKDKPTHEILQKLNDCSCLASQAILLGILLKREGPNFITKEGTVSDHIERVYRRAGSQKLWLAVRYGAAFTQKFSSSIAPHITTFLVHGKQVTLGAFGHEEEVISNPLSPRVIQNIIYYKCNTHDEREAVIQQELVIHIGWIISNNPELFSGMLKIRIGWIIHAMEYELQIRGGDKPALDLYQLSPSEVKQLLLDILQPQQNGRCWLNRRQIDGSLNRTPTGFYDRVWQILERTPNGIIVAGKHLPQQPTLSDMTMYEMNFSLLVEDTLGNIDQPQYRQIVVELLMVVSIVLERNPELEFQDKVDLDRLVKEAFNEFQKDQSRLKEIEKQDDMTSFYNTPPLGKRGTCSYLTKAVMNLLLEGEVKPNNDDPCLIS
modifications: farnesyl group on Cys1090 (mass spectrometry; density in the cryo-EM maps); treated with λ-phosphatase
notes: phosphorylase kinase β-subunit, human, full length; domains D1-D5; Forms the central β4 homotetramer of the hexadecamer
stoichiometry N: 4
